Usually EC50 (read off the curve) stands for the concentration at which the effect is half-maximal.

Five molecules from patent US20250325643A1 (Genmab, published 2025) can be followed below.

Assay [1] concerns the target T1, human C1q (from normal human serum) (human, UniProt P02745 23-245; P02746 28-253; P02747 29-245).
T1 construct: 20% normal human serum was the source of C1q
Briefly: flow cytometry: human T cells opsonised with the antibody, 20% normal human serum as source of C1q, FITC-labelled rabbit anti-human C1q. On the technique in general: In flow cytometry, cells or beads pass a laser one at a time.

The target in assay [2] is T2, recombinant His-tagged human FcγRIa (Sino Biological, Cat #10256-H08S-B) (human, UniProt P12314 16-288).
T2 construct: Bought protein; not shown: His tag
Briefly: SPR (Biacore): His-tagged FcγRIa captured on an anti-His chip, antibody injected; resonance units against antibody concentration. How it is done: Binding of IgG1-CD27-A-P329R-E345R to human FcγR variants was analyzed using a Biacore surface plasmon resonance (SPR) system and compared to an anti-HIV gp120 antibody IgG1-b12 (ctrl). Biacore Series S Sensor Chips CM5 (Cytiva, Cat #29104988) were covalently coated with anti-His antibody using amine-coupling and His capture kits (Cytiva, Cat #BR100050 and Cat #29234602) according to the manufacturer's instructions. […] After three cycles of buffer, antibody samples were injected for 36 cycles to generate binding curves using antibody ranges of 0-3,000 nM for FcγRI and 0-10,000 nM for the other FcγRs. Each sample that was analyzed on an FcR-coated surface (Active Surface) was also analyzed on a parallel flow-cell without FcR (Reference Surface), which was used for background correction. Dissociation from the anti-His-coated surface was performed by regeneration of the surface using 10 mM Glycine-HCl pH 1.5 (Cytiva, Cat #BR100354). Sensograms were generated using Biacore Insight Evaluation software (Cytiva) and a four-parameter logistic (4PL) fit was applied to calculate relative binding of IgG1-CD27-A-P329R-E345R against the reference sample (ctrl).

The target in assay [3] is T3, human FcγRIa on monocyte-derived macrophages (M0, M1, hMDM) (human, UniProt P12314 16-374).
T3 construct: whole, on cells; The macrophages also express FcγRII and FcγRIIIa
Briefly: flow cytometry on M0 monocyte-derived macrophages, PE-labelled goat anti-human IgG.

Assay [4] deals with T4, human CD27 expressed on cells (T cells, transfected HEK293F cells, Daudi cells, NFκB-luc2/CD27 Jurkat … (human, UniProt P26842 20-240)).
T4 construct: also called TNFRSF7
T4 sequence: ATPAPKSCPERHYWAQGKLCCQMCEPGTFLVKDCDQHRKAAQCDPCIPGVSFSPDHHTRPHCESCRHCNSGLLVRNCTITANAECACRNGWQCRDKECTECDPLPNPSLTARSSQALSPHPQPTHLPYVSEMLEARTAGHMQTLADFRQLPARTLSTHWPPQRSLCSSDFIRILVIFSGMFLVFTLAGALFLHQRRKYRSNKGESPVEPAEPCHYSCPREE
Briefly: flow cytometry on CD4+ T cells in human PBMC, FITC-conjugated goat anti-human IgG F(ab')2, median FITC. How it is done: Binding of IgG1-CD27-A-P329R-E345R to CD27 on human healthy donor T cells was characterized in more detail using flow cytometry. Anti-HIV gp120 antibody variant IgG1-b12-P329R-E345R was used as non-binding control antibody (ctrl). Human PBMCs were isolated from buffy coats obtained from human healthy donors. PBMCs (1×10⁵ cells/well) in FACS buffer were added to polystyrene 96-well round-bottom plates (Greiner bio-one, Cat #650101) and pelleted by centrifugation at 300×g for 3 min at 4° C. The cells were resuspended in 50 μL/well serial antibody dilutions in FACS buffer (range 0.0015 to 10 μg/mL in 3-fold dilution steps) and incubated for 30 min at 4° C. Cells were pelleted, washed twice with FACS buffer and incubated in 50 μL/well with FITC-conjugated secondary antibody (FITC AffiniPure F(ab′)₂ fragment goat anti-human IgG, F(ab′)₂ fragment specific, Jackson ImmunoResearch, Cat #109-096-097, diluted 1:100) for 30 min at 4° C. in the dark. […] The samples were measured by flow cytometry on an LSRFortessa (BD) flow cytometer and analyzed using FlowJo software. Binding curves were analyzed using non-linear regression (sigmoidal dose-response with variable slope) using GraphPad Prism 8 software.

Assay [5] concerns the target T4, human CD27 expressed on cells (T cells, …). Briefly: flow cytometry on T cells in human PBMC (endogenous CD27), PE-labelled goat anti-human IgG, median MFI PE. How it is done: (§1) Non-binding control antibody IgG1-b12-FEAR was used as negative control antibody. *N.B. IgG1-CD27-A, -B, -C, -D and -E carried mutations F405L-L234F-L235E-D265A in the IgG Fc domain, which are functionally irrelevant in the context of this experiment.
(§2) Cells were seeded in 96-wells plates (100,000 cells per well; Greiner Bio-one, Cat #650180) for sequential incubations, with washing steps in between with FACS buffer, consisting of PBS (Lonza, Cat #BE17-517Q)+1% BSA (Roche, Cat #10735086001)+0.02% Sodium Azide (Bio-World, Cat #41920044-3). The following incubations were applied: antibody concentration series (0.0001-10 μg/mL final concentration) for 30 min at 4° C.; live/dead marker FVS510 (BD, Cat #564406, diluted 1:1,000 in PBS) for 20 min at RT; PE-labeled polyclonal goat anti-human IgG (Jackson Immuno Research, Cat #109-116-098, diluted 1:500) for 30 min at 4° C.; and anti-CD3 antibody for T-cell identification (anti-human CD3: BD, Cat #555335, diluted 1:10; anti-cyno CD3: Miltenyi, Cat #130-091-998, diluted 1:10) for 30 min at 4° C. All samples were analyzed on a FACSCelesta flow cytometer (BD) and FlowJo software. Data were processed and visualized using GraphPad Prism.

The target of assay [6] is T5, cynomolgus monkey CD27 expressed on cells (cynomolgus monkey T cells, transfected HEK293F cells) (cynomolgus monkey, UniProt P26842 20-260 (human entry)).
T5 construct: also called cyno CD27
T5 chain: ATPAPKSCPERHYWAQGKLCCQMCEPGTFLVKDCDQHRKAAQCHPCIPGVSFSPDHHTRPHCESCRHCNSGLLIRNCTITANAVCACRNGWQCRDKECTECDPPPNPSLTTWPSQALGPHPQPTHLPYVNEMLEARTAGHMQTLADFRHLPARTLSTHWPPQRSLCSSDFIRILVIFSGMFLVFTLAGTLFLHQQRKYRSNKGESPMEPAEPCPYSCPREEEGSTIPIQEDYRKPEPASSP
Briefly: flow cytometry on T cells in cynomolgus monkey PBMC (endogenous CD27), PE-labelled goat anti-human IgG, median MFI PE. How it is done:
as §1, §2

Assay [7] deals with T5, cynomolgus monkey CD27 expressed on …. Briefly: flow cytometry on HEK293F cells transiently transfected with cynomolgus monkey CD27, PE-labelled goat anti-human IgG, median MFI PE. How it is done:
as §1, §2

For assay [8], the target named is T6, human CD27-A59T variant expressed on transiently transfected HEK293F cells (human, UniProt P26842 20-260).
T6 sequence: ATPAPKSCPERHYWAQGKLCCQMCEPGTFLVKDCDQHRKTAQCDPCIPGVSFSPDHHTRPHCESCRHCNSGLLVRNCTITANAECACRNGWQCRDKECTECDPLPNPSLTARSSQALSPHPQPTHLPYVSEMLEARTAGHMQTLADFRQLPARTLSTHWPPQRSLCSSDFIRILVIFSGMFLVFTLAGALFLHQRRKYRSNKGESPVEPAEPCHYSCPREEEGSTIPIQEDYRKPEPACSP
Briefly: flow cytometry on HEK293F cells transiently transfected with human CD27-A59T, PE-labelled goat anti-human IgG, median MFI PE. How it is done:
Approximately 19% of the human population expresses a natural CD27 variant harboring an A59T mutation in the extracellular domain (SEQ ID NO. 2). […] Non-binding antibody IgG1-b12-FEAL was used as a negative control antibody. […] After incubation, antibodies were PE-labeled with polyclonal goat anti-human IgG. Binding was analyzed on a FACSCelesta flow cytometer (BD) and FlowJo software. Data were processed and visualized using GraphPad Prism v.8. *N.B. IgG1-CD27-A, -B and -C carried mutations F405L-L234F-L235E-D265A in the IgG Fc domain, which are functionally irrelevant in the context of this experiment.

The target of assay [9] is T4, human CD27 expressed on cells (T cells, …). Briefly: flow cytometry on HEK293F cells transiently transfected with human CD27, PE-labelled goat anti-human IgG, median MFI PE.

T3 sequence (P12314 16-374): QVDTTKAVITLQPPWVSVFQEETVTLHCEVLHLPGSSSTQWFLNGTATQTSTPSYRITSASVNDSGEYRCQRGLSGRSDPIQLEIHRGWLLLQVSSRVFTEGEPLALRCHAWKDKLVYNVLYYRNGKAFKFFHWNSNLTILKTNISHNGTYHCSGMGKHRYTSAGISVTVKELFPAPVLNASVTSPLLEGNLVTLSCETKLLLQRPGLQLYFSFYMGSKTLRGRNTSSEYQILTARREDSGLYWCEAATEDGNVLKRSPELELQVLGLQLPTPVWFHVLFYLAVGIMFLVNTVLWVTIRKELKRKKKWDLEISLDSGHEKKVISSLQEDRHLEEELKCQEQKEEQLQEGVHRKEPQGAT
T2 sequence (P12314 16-288 limits assumed, stated change not applied): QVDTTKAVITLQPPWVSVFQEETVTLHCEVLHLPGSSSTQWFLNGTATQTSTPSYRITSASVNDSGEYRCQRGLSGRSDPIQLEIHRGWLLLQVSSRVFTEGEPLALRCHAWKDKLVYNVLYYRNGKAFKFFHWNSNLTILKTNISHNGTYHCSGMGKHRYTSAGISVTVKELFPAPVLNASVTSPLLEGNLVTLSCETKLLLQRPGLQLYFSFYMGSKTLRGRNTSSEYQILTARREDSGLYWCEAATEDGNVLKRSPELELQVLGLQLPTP
T1 sequence (P02745 23-245 limits assumed, chain 1 of 3): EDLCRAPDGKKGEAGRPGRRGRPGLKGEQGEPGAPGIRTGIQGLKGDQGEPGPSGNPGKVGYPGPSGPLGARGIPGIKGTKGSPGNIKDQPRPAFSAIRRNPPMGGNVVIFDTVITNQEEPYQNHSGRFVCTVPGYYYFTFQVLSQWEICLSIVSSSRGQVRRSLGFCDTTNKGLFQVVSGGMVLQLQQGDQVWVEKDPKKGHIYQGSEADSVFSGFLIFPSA
T1 sequence (P02746 28-253 limits assumed, chain 2 of 3): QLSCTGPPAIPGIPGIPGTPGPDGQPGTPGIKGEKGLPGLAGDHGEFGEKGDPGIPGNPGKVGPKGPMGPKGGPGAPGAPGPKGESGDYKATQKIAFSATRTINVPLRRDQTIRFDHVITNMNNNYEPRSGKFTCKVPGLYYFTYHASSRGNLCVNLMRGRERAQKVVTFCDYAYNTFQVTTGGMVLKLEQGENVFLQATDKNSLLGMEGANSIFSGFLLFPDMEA
T1 sequence (P02747 29-245 limits assumed, chain 3 of 3): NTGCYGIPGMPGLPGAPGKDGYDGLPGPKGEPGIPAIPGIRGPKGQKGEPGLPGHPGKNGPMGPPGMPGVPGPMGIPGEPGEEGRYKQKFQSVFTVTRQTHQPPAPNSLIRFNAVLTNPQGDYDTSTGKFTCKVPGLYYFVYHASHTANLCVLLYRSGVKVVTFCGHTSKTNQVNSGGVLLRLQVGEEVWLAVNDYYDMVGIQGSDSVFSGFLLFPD

B1: IgG1-CD27-A (wild-type IgG1 Fc) (antibody)
VH: not shown
VL: QSALTQPASVSGSPGQSITISCTGTSSDVYYYNYVSWYQQHPGRAPKLVIYDVSNRPSGVSNRFSGSKSGNTASLTISGLRAEDEADYYCSSYTVNRVWVFGGGTKLTVLGQPKAAPSVTLFPPSSEELQANKATLVCLISDFYPGAVTVAWKADSSPVKAGVETTTPSKQSNNKYAASSYLSLTPEQWKSHRSYSCQVTHEGSTVEKTVAPTECS
notes: Human IgG1 heavy chain backbone, wild-type Fc; also called WT IgG1-CD27-A; IgG-CD27-A
For the molecule B1, in assay [1], the binding result was “no binding (tested: 15 µg/mL)”.

B2: IgG1-b12 (wild-type IgG1 Fc) (antibody)
VH: not shown
VL: EIVLTQSPGTLSLSPGERATFSCRSSHSIRSRRVAWYQHKPGQAPRLVIHGVSNRASGISDRFSGSGSGTDFTLTITRVEPEDFALYYCQVYGASSYTFGQGTKLERKRTVAAPSVFIFPPSDEQLKSGTASVVCLLNNFYPREAKVQWKVDNALQSGNSQESVTEQDSKDSTYSLSSTLTLSKADYEKHKVYACEVTHQGLSSPVTKSFNRGEC
notes: also called WT IgG1-b12; ctrl
Consider B2, for which, in [2], the concentration giving a half-maximal response (EC50 (read off the curve)) is approximately 60 nM.

B3: IgG1-b12-P329R-E345R (antibody)
VH: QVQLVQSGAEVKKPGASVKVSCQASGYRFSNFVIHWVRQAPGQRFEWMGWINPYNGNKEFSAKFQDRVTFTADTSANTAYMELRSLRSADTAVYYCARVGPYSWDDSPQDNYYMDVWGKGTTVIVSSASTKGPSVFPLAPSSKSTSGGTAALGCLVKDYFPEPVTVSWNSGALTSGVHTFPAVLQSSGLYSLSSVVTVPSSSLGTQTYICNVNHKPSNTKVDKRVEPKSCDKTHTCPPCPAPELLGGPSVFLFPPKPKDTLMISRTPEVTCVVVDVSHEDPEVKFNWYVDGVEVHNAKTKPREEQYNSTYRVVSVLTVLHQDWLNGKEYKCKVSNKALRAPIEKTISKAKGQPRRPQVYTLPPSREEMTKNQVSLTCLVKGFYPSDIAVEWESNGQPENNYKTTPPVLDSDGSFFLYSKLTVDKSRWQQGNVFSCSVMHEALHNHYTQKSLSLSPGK
VL: EIVLTQSPGTLSLSPGERATFSCRSSHSIRSRRVAWYQHKPGQAPRLVIHGVSNRASGISDRFSGSGSGTDFTLTITRVEPEDFALYYCQVYGASSYTFGQGTKLERKRTVAAPSVFIFPPSDEQLKSGTASVVCLLNNFYPREAKVQWKVDNALQSGNSQESVTEQDSKDSTYSLSSTLTLSKADYEKHKVYACEVTHQGLSSPVTKSFNRGEC
notes: also called ctrl; IgG1-b12-E345R-P329R
For B3, the binding result was “no binding (tested: 30 µg/mL)” in assay [3] and “no binding (tested: 10 µg/ml)” in assay [4].

B4: IgG1-CD27-A carrying mutations F405L-L234F-L235E-D265A in the IgG Fc domain (antibody, V domains shown)
VH: QVQLMQSGSELKKPGASVKVSCRASGYTFTTYAMNWVRQAPGQGPEWMGWINTNTGNPTYAQGFTGRFVFSLDTTVTTTYLQISSLKAEDTAVYFCAREAGSFDYWGQGTLVTVSS
VL: QSALTQPASVSGSPGQSITISCTGTSSDVYYYNYVSWYQQHPGRAPKLVIYDVSNRPSGVSNRFSGSKSGNTASLTISGLRAEDEADYYCSSYTVNRVWVFGGGTKLTVL
On to B4, for which the “EC50 (read off the curve)” value is approximately 0.04 µg/mL in assay [5]; approximately 0.04 µg/mL in assay [6]; approximately 0.06 µg/mL in assay [7]; approximately 0.2 µg/mL in assay [8]; approximately 0.1 µg/mL in assay [9].

B5: IgG1-b12-FEAL (antibody, V domains shown)
VH: QVQLVQSGAEVKKPGASVKVSCQASGYRFSNFVIHWVRQAPGQRFEWMGWINPYNGNKEFSAKFQDRVTFTADTSANTAYMELRSLRSADTAVYYCARVGPYSWDDSPQDNYYMDVWGKGTTVIVSS
VL: EIVLTQSPGTLSLSPGERATFSCRSSHSIRSRRVAWYQHKPGQAPRLVIHGVSNRASGISDRFSGSGSGTDFTLTITRVEPEDFALYYCQVYGASSYTFGQGTKLERK
notes: also called ctrl
For the molecule B5, the binding result in assay [8] is listed as “no binding (tested: 10 µg/mL)”.
